# Measured values: patent US20100204091
# T1: SIVA2
# T1 chain: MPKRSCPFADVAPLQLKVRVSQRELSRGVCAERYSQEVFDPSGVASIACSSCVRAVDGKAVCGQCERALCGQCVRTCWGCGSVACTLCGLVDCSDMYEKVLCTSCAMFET
# Molecular target: T1, SIVA2
protein,measurement,value
"NF-κB-inducing kinase, NIK, (MAP3K14) (protein) MAVMEMACPGAPGSAVGQQKELPKAKEKTPPLGKKQSSVYKLEAVEKSPVFCGKWEILNDVITKGTAKEGSEAGPAAISIIAQAECENSQEFSPTFSERIFIAGSKQYSQSESLDQIPNNVAHATEGKMARVCWKGKRRSKARKKRKKKSSKSLAHAGVALAKPLPRTPEQESCTIPVQEDESPLGAPYVRNTPQFTKPLKEPGLGQLCFKQLGEGLRPALPRSELHKLISPLQCLNHVWKLHHPQDGGPLPLPTHPFPYSRLPHPFPFHPLQPWKPHPLESFLGKLACVDSQKPLPDPHLSKLACVDSPKPLPGPHLEPSCLSRGAHEKFSVEEYLVHALQGSVSSGQAHSLTSLAKTWAARGSRSREPSPKTEDNEGVLLTEKLKPVDYEYREEVHWATHQLRLGRGSFGEVHRMEDKQTGFQCAVKKVRLEVFRAEELMACAGLTSPRIVPLYGAVREGPWVNIFMELLEGGSLGQLVKEQGCLPEDRALYYLGQALEGLEYLHSRRILHGDVKADNVLLSSDGSHAALCDFGHAVCLQPDGLGKSLLTGDYIPGTETHMAPEVVLGRSCDAKVDVWSSCCMMLHMLNGCHPWTQFFRGPLCLKIASEPPPVREIPPSCAPLTAQAIQEGLRKEPIHRVSAAELGGKVNRALQQVGGLKSPWRGEYKEPRHPPPNQANYHQTLHAQPRELSPRAPGPRPAEETTGRAPKLQPPLPPEPPEPNKSPPLTLSKEESGMWEPLPLSSLEPAPARNPSSPERKATVPEQELQQLEIELFLNSLSQPFSLEEQEQILSCLSIDSLSLSDDSEKNPSKASQSSRDTLSSGVHSWSSQAEARSSSWNMVLARGRPTDTPSYFNGVKVQIQSLNGEHLHIREFHRVKVGDIATGISSQIPAAAFSLVTKDGQPVRYDMEVPDSGIDLQCTLAPDGSFAWSWRVKHGQLENRP",in vitro kinase assay (phosphorylation of SIVA2),NIK readily phosphorylated SIVA2
